According to article PMC9930398, “SlMYB1 regulates the accumulation of lycopene, fruit shape, and resistance to Botrytis cinerea in tomato”:

B1: SlPSY2pro probe (dsDNA)
DNA 1: TCGGTTATCGGTTATCGGTTA
DNA 2: TAACCGATAACCGATAACCGA
B2: SlPR5pro probe (dsDNA)
DNA 1: TCCGTTCTCCGTTCTCCGTTC
DNA 2: GAACGGAGAACGGAGAACGGA
B3: SlLCY1pro probe (dsDNA)
DNA 1: ACCGTTCACCGTTCACCGTTC
DNA 2: GAACGGTGAACGGTGAACGGT

Biological target: SlMYB1-GST (Solanum lycopersicum, UniProt A0A3Q7I0H7 1-380)
Assay: EMSA; EMSA/Gel-Shift kit (Biyuntian/Beyotime) per instructions; buffer, salt, pH and temperature not stated
Settings: protein: recombinant; tags: GST (pGEX-4T-1, N-terminal by vector); label: biotin; blunt

Sequence of SlMYB1-GST (A0A3Q7I0H7 entry or part of it): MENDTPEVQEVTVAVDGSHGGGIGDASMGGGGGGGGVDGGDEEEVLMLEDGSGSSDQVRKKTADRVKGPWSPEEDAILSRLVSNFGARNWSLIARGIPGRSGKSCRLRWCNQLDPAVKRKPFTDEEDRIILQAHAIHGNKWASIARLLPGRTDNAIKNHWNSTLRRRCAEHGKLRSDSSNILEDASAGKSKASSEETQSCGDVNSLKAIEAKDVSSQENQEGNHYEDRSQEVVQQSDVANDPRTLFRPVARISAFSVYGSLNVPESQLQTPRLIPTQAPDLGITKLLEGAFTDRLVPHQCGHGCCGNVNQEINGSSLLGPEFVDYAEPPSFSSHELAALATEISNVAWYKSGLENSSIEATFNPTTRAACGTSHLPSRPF

Binder	binding result
B1	binds
B2	binds
B3	binds
